Here are results for 125 sequences from the supplement of paper PMC9112550, “Optimization of the antimicrobial peptide Bac7 by deep mutational scanning” (BMC Biology, 2022).
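Note: peptides expressed intracellularly from a pBAD plasmid library in pooled LB shake-flask culture, induced with 0.3% L-arabinose, DNA abundance read by NGS, three biological replicates, DESeq2 with apeglm shrinkage.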

The data set has as its system Escherichia coli TOP10. Description: shrunken log2 fold change of peptide-encoding DNA abundance (4.5 h post-induction vs induction); higher = less antimicrobial activity (less host growth inhibition). To be noted: time post-induction: 4.5 h; library: site-saturation at positions 5, 18, 19, 20.
Consider RRIRFRPPRLPRPRPRPMWKPRP, for which the “shrunken log2 fold change” value is -0.0148. In the case of RRIRLRPPRLPRPRPRPHIRPRP, the “shrunken log2 fold change” value is -0.108. Then RRIRMRPPRLPRPRPRPFTKPRP, with -0.319. Turning to RRIRQRPPRLPRPRPRPYMQPRP, the “shrunken log2 fold change” value was -0.239. With RRIRDRPPRLPRPRPRPASIPRP, the “shrunken log2 fold change” value turned out to be 0.0781. As for RRIRRRPPRLPRPRPRPWDLPRP, the figure is -0.04. Then RRIRERPPRLPRPRPRPTHNPRP, with -0.206. Then RRIRMRPPRLPRPRPRPCQQPRP, with 0.0325. Regarding RRIRDRPPRLPRPRPRPIVSPRP, the “shrunken log2 fold change” value is 0.041. RRIRGRPPRLPRPRPRPKTVPRP: the “shrunken log2 fold change” value was 0.662. For RRIRDRPPRLPRPRPRPHWLPRP, the “shrunken log2 fold change” value is 0.149. As for RRIRKRPPRLPRPRPRPWIWPRP, the “shrunken log2 fold change” value came out at 1.96.

Consider RRIRMRPPRLPRPRPRPNYLPRP, for which the “shrunken log2 fold change” value is -0.212. On to RRIRMRPPRLPRPRPRPGPQPRP, for which the “shrunken log2 fold change” value came to 1.21.

On to RRIRHRPPRLPRPRPRPNKPPRP, for which the “shrunken log2 fold change” value was -0.0637.

For the sequence RRIRSRPPRLPRPRPRPLICPRP, the “shrunken log2 fold change” value is -0.221. As for RRIRNRPPRLPRPRPRPQLSPRP, the “shrunken log2 fold change” value is -0.2. Then RRIRHRPPRLPRPRPRPFGSPRP, with -0.0134; and RRIRLRPPRLPRPRPRPIFNPRP, with -0.221; and RRIRQRPPRLPRPRPRPWINPRP, with -0.408. Then RRIRKRPPRLPRPRPRPFQRPRP, with -0.0265; and RRIRNRPPRLPRPRPRPIFSPRP, with 0.0636; and RRIRYRPPRLPRPRPRPETAPRP, with 0.00332. Regarding RRIRRRPPRLPRPRPRPANGPRP, the “shrunken log2 fold change” value was -0.164. On to RRIRLRPPRLPRPRPRPQKMPRP, for which the “shrunken log2 fold change” value is -0.0278. As for RRIRNRPPRLPRPRPRPWHNPRP, the figure is -0.146; as for RRIRPRPPRLPRPRPRPNLCPRP, 0.138; as for RRIRKRPPRLPRPRPRPHSLPRP, 0.0727. As for RRIRFRPPRLPRPRPRPHFEPRP, the figure is -0.185. Regarding RRIRMRPPRLPRPRPRPWMGPRP, the “shrunken log2 fold change” value is -0.33. As for RRIRMRPPRLPRPRPRPLGTPRP, the figure is 1.31. In the case of RRIRDRPPRLPRPRPRPVYKPRP, the “shrunken log2 fold change” value is -0.601.

Consider RRIRPRPPRLPRPRPRPDLAPRP, for which the “shrunken log2 fold change” value came out at 0.316. As for RRIRERPPRLPRPRPRPTNFPRP, the figure is -0.00437; as for RRIRSRPPRLPRPRPRPRMRPRP, 0.91. As for RRIRKRPPRLPRPRPRPDIIPRP, the figure is 0.194. As for RRIRRRPPRLPRPRPRPDMQPRP, the figure is 0.272; as for RRIRKRPPRLPRPRPRPSIEPRP, 0.0829. As for RRIRMRPPRLPRPRPRPGFTPRP, the “shrunken log2 fold change” value stood at 0.00309.

For the sequence RRIRCRPPRLPRPRPRPVMHPRP, the “shrunken log2 fold change” value is -0.212. As for RRIRHRPPRLPRPRPRPNMRPRP, the figure is 0.0719; as for RRIRLRPPRLPRPRPRPKQNPRP, 0.2. For the sequence RRIRSRPPRLPRPRPRPYCTPRP, the “shrunken log2 fold change” value was -0.256. For RRIRYRPPRLPRPRPRPMCKPRP, the “shrunken log2 fold change” value is -0.368. As for RRIRLRPPRLPRPRPRPSPTPRP, the figure is 1.06; as for RRIRIRPPRLPRPRPRPDWDPRP, -0.318. Then RRIRWRPPRLPRPRPRPDLHPRP, with 0.243. Then RRIRSRPPRLPRPRPRPGSTPRP, with 0.0972. With RRIRGRPPRLPRPRPRPELVPRP, the “shrunken log2 fold change” value turned out to be 1.58. For the sequence RRIRQRPPRLPRPRPRPIQSPRP, the “shrunken log2 fold change” value amounted to 0.0147. In the case of RRIRKRPPRLPRPRPRPSDGPRP, the “shrunken log2 fold change” value was 0.178.

Take RRIRMRPPRLPRPRPRPTWKPRP: the “shrunken log2 fold change” value was -0.0427.

Turning to RRIRNRPPRLPRPRPRPTSTPRP, the “shrunken log2 fold change” value is -0.7.

For RRIRVRPPRLPRPRPRPDKKPRP, the “shrunken log2 fold change” value was 0.135. RRIRWRPPRLPRPRPRPETCPRP: the “shrunken log2 fold change” value came out at 0.16.

Regarding RRIRLRPPRLPRPRPRPYDWPRP, the “shrunken log2 fold change” value is -0.218. Regarding RRIRMRPPRLPRPRPRPTWQPRP, the “shrunken log2 fold change” value stood at 0.288.

In the case of RRIRIRPPRLPRPRPRPSVLPRP, the “shrunken log2 fold change” value is -0.189.

Take RRIRTRPPRLPRPRPRPPNSPRP: the “shrunken log2 fold change” value is 0.0134. Then RRIRSRPPRLPRPRPRPHQDPRP, with -0.117; and RRIRSRPPRLPRPRPRPKTRPRP, with 0.156; and RRIRTRPPRLPRPRPRPHVQPRP, with -0.156. As for RRIRGRPPRLPRPRPRPFHFPRP, the figure is 0.119.

As to RRIRERPPRLPRPRPRPCVSPRP, the “shrunken log2 fold change” value was -0.0843. Then RRIRRRPPRLPRPRPRPHHMPRP, with -0.217; and RRIRHRPPRLPRPRPRPERMPRP, with -0.0151. Consider RRIRVRPPRLPRPRPRPMYNPRP, for which the “shrunken log2 fold change” value is -0.315. Take RRIRKRPPRLPRPRPRPQCEPRP: the “shrunken log2 fold change” value is -0.0553.

With RRIRMRPPRLPRPRPRPKVKPRP, the “shrunken log2 fold change” value is 0.614. Then RRIRCRPPRLPRPRPRPSIEPRP, with -0.123; and RRIRFRPPRLPRPRPRPPAYPRP, with 0.127. As for RRIRERPPRLPRPRPRPIQNPRP, the figure is 0.0753; as for RRIRERPPRLPRPRPRPEFIPRP, -0.335. As for RRIRMRPPRLPRPRPRPKFEPRP, the “shrunken log2 fold change” value came out at 0.109.

RRIRARPPRLPRPRPRPMIKPRP: the “shrunken log2 fold change” value stood at 0.148. As for RRIRGRPPRLPRPRPRPVVSPRP, the “shrunken log2 fold change” value came to 0.62. As to RRIRKRPPRLPRPRPRPFTYPRP, the “shrunken log2 fold change” value is -0.0389. Turning to RRIRFRPPRLPRPRPRPSEFPRP, the “shrunken log2 fold change” value was -0.301. As for RRIRIRPPRLPRPRPRPQTSPRP, the figure is -0.404. Then RRIRLRPPRLPRPRPRPMHWPRP, with 0.0928; and RRIRKRPPRLPRPRPRPDNRPRP, with 0.00592; and RRIRWRPPRLPRPRPRPGHGPRP, with 0.214.

Turning to RRIRPRPPRLPRPRPRPANIPRP, the “shrunken log2 fold change” value was -0.617. In the case of RRIRVRPPRLPRPRPRPDNCPRP, the “shrunken log2 fold change” value was -0.0588. With RRIRFRPPRLPRPRPRPCPFPRP, the “shrunken log2 fold change” value is -0.988. Consider RRIRNRPPRLPRPRPRPVQWPRP, for which the “shrunken log2 fold change” value was -0.0368.

As to RRIRDRPPRLPRPRPRPWPWPRP, the “shrunken log2 fold change” value was -0.0837. Then RRIRCRPPRLPRPRPRPNKSPRP, with -0.584; and RRIRLRPPRLPRPRPRPRRGPRP, with 0.543.

For RRIRLRPPRLPRPRPRPGSEPRP, the “shrunken log2 fold change” value is -0.0984. Then RRIRPRPPRLPRPRPRPRKLPRP, with 0.342; and RRIRDRPPRLPRPRPRPYACPRP, with 0.0334; and RRIRERPPRLPRPRPRPLWNPRP, with -0.298.

Take RRIRSRPPRLPRPRPRPYADPRP: the “shrunken log2 fold change” value was -0.179.

On to RRIRFRPPRLPRPRPRPFRGPRP, for which the “shrunken log2 fold change” value was -0.224. As for RRIRARPPRLPRPRPRPSVNPRP, the “shrunken log2 fold change” value was -0.383. Then RRIRRRPPRLPRPRPRPACDPRP, with 0.539; and RRIRKRPPRLPRPRPRPCSPPRP, with -0.102; and RRIRRRPPRLPRPRPRPFIFPRP, with 0.25.

As to RRIRCRPPRLPRPRPRPFKMPRP, the “shrunken log2 fold change” value was -0.854. RRIRHRPPRLPRPRPRPQWSPRP: the “shrunken log2 fold change” value was -0.0854. On to RRIRVRPPRLPRPRPRPYYDPRP, for which the “shrunken log2 fold change” value was -0.429. As to RRIRWRPPRLPRPRPRPKIWPRP, the “shrunken log2 fold change” value is 0.272. As to RRIRERPPRLPRPRPRPPGAPRP, the “shrunken log2 fold change” value amounted to 0.573.

As for RRIRKRPPRLPRPRPRPDMCPRP, the “shrunken log2 fold change” value turned out to be 0.217. Then RRIRKRPPRLPRPRPRPGSCPRP, with 0.346; and RRIRNRPPRLPRPRPRPVGLPRP, with 0.0874; and RRIRQRPPRLPRPRPRPYMKPRP, with -0.521. RRIRMRPPRLPRPRPRPAHLPRP: the “shrunken log2 fold change” value amounted to 0.0862. As for RRIRNRPPRLPRPRPRPIWIPRP, the figure is -0.0856. With RRIRKRPPRLPRPRPRPTIWPRP, the “shrunken log2 fold change” value turned out to be 0.319. Regarding RRIRWRPPRLPRPRPRPGCAPRP, the “shrunken log2 fold change” value is 0.948. RRIRTRPPRLPRPRPRPIQFPRP: the “shrunken log2 fold change” value is -0.0251. With RRIRLRPPRLPRPRPRPGRCPRP, the “shrunken log2 fold change” value is 0.341. For the sequence RRIRLRPPRLPRPRPRPSQMPRP, the “shrunken log2 fold change” value is -0.261.

In the case of RRIRRRPPRLPRPRPRPHWVPRP, the “shrunken log2 fold change” value was 0.0391. For the sequence RRIRDRPPRLPRPRPRPYYAPRP, the “shrunken log2 fold change” value was -0.201.

RRIRTRPPRLPRPRPRPITPPRP: the “shrunken log2 fold change” value is -0.237.

Turning to RRIRWRPPRLPRPRPRPWFCPRP, the “shrunken log2 fold change” value was -0.0932. Then RRIRFRPPRLPRPRPRPFIRPRP, with -0.588; and RRIRSRPPRLPRPRPRPAYVPRP, with -0.137.

In the case of RRIRCRPPRLPRPRPRPHEGPRP, the “shrunken log2 fold change” value is -0.172.

For the sequence RRIRDRPPRLPRPRPRPLTSPRP, the “shrunken log2 fold change” value was 0.109. As for RRIRERPPRLPRPRPRPLHDPRP, the figure is 0.0501; as for RRIRIRPPRLPRPRPRPRPHPRP, 1.98.
